One experiment deals with T1, hT40 (Homo sapiens, UniProt P10636).
T1 construct: Full length tau (hT40)
Briefly: Sandwich ELISA limits of detection (LoD) of antibody pairs. It is filed as binding. The text has this:
The diverse panel of high affinity anti-tau antibodies (scAb and mAb formats) were paired in various combinations and tested in a Sandwich (or Capture) ELISA format to calculate their limits of detection (LoD) and their ability to differentiate between different tau species. Biologically, tau exists in 6 different isoforms and is subjected to numerous post translational modifications, some of them playing a significant role in the progression of neurodegeneration.
For Sandwich ELISA using colourimetric detection, 96 well Maxisorp plates were coated with the capture antibody S1D12 mAb at 1 μg/ml for 1 h at RT followed by blocking with 2% MPBS as normal. Full length tau (hT40), at 1 μg/ml starting concentration was added to designated wells and double diluted across rest of the plates and left to incubate at R/T for 1 h. A series of detection scAbs with varying epitope recognition properties were added at 10 μg/ml to designated wells (FIG. 22). For colourimetric detection HRP conjugated anti-HuCk secondary antibody was used and the resulting immunoreaction was developed and absorbance at 450 nm measured as described previously. Cut-off point for a positive binding event was an absorbance value of 0.3 following background subtraction. In order to enhance the assay sensitivity, a chemiluminescent detection method was adopted where 50 μL SuperSignal ELISA Femto Substrate (Thermo Scientific) was added to each well following incubation with anti-HuCK HRP antibody and subsequent washing. The luminescence was read using Clariostar Plus microplate reader. A further modification to this protocol was done where various detection scAbs were directly conjugated with HRP and detected using chemiluminescent protocol as before. The lowest levels of detection achieved using different detection scAbs and a comparison of colourimetric and chemiluminescent methods of detection are shown in Table 28
Similarly, a sandwich ELISA format was set up using S1G2 mAb at 1 μg/ml as the capture antibody and HRP conjugated S1D12 mAb for detection. The assay was conducted using chemiluminescent protocol described above.
A general note: ELISA stands for enzyme-linked immunosorbent assay.

The test system of experiment [1] is hT40, dGA, dGAE and truncated tau fragments. In words: Binding ELISA / epitope mapping of anti-tau scAbs with truncated tau proteins and 13mer peptides. Further details: species or system human. Particulars: for Tau proteins/fragments with positive scAb reactivity / Shortest region bound on hT40: Table 17, 'C' group scAbs; for Tau proteins/fragments with positive scAb reactivity: binding ELISA; for Shortest region bound on hT40: incl. 13mer peptides; for Detection scAb (Epitope): Table 28 (LoD table). The method, boiled down:
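Plates coated with 1 μg/ml tau protein, or 5 μg/ml streptavidin then 1 μg/ml biotinylated 13mer peptide; blocked with 2% MPBS. scAbs added at a starting concentration and double-diluted. Bound scAb detected with HRP anti-human C kappa and read as absorbance.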

In a further experiment the target is T2, htau40 (Homo sapiens, UniProt P10636).
T2 construct: Full length tau (hT40)
T2 sequence (P10636 1-441 isoform P10636-8): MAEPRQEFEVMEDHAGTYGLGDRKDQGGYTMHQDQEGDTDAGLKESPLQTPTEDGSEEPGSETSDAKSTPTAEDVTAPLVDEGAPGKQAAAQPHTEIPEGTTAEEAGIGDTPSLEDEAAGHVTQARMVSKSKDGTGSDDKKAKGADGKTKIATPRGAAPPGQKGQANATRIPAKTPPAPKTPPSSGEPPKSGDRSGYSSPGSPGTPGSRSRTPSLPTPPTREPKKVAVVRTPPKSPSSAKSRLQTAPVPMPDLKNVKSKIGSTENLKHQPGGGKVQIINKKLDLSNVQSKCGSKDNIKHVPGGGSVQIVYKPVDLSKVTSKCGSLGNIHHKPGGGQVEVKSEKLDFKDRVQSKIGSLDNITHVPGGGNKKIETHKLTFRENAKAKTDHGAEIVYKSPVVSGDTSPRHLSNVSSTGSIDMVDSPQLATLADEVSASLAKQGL
Briefly: Biacore X100 SPR kinetics of anti-tau mAbs on immobilised htau40. It is filed as binding. The method, boiled down:
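Htau40 amine-coupled to CM5 chip (~250 RU, pH 4.0 immobilisation), reference flow cell subtracted; mAb injected at 0.78–25 nM in HBS-EP+, 120 s association, 600 s dissociation, glycine pH 1.5 regeneration. Kinetic and affinity constants from 1:1 binding model fit.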

Another experiment deals with dGAE aggregates (Homo sapiens, UniProt P10636). In words: Epitope occlusion assay: dGAE aggregation with/without LMTM, 423 mAb capture ELISA. In kind it is biochemical. The following applies: total and supernatant samples; 423 mAb capture. As for the experimental part:
During dGAE aggregation in vitro, scAb binding regions on dGA/dGAE are ‘hidden’ or ‘occluded’ which leads to a loss of immunoreactivity in aggregation samples. Here we have shown the occlusion of binding regions in aggregated dGAE samples and the recovery of immunoreactivity in the presence of LMTM, a tau-aggregation inhibitor. For preparing the aggregates, 10 μl 10 mM DTT was added to 1000 μl 100 μM dGAE and agitated with/without LMTM (1:5 ratio) at 700 rpm for 24 h at 37° C. Following overnight agitation, one third of each sample was kept aside as ‘total’ and the rest was spun down at 16000×g for 30 min and separated into ‘supernatant’ and ‘pellet’. The pellet was then resuspended in half the original volume for further experiments. […] Doubling dilutions of dGAE aggregate ‘total’, ‘supernatant’ and ‘pellet’ samples at 10 μg/ml starting concentration were added to designated wells in doubling dilutions in 1×PBS. dGAE monomer (non-aggregated) was included as assay control. All double dilutions were done in final volumes of 100 μl. This was left to incubate on lab bench for 1 h followed by the addition of test scAbs at 10 μg/ml. Anti-HuCk HRP labelled secondary antibody was added as described previously and ELISA data generated is represented using the graph below.

Experiment [2] deals with 13 aa tau peptides of hT40. Briefly: Alanine scanning mutagenesis (ASM) peptide ELISA. It is filed as binding, human. The following applies: alanine substituted peptides; numbering SEQ ID NO: 1. As for the experimental part:
Briefly, 5 μg/ml streptavidin (Thermo Fisher) was adsorbed to Nunc 96-well MaxiSorp plates and following incubation at 37° C. for 1 h, the plates were washed as normal and blocked with 2% MPBS. N-terminally biotinylated peptides (Prolmmune Ltd) were added to the plates and incubated for 1 h at 37° C. Subsequently, test scAbs at starting concentrations of 100-500 nM was added and double diluted across the plate for each peptide and incubated for 1 h at 37° C. Rest of the ELISA was conducted as described above and the plates were read at absorbance 450 nm. Immunoreactivity of the scAb of interest was quantified as the % of scAb was bound for each peptide at a chosen concentration (FIG. 15-20).

The target in experiment [3] is T3, hT40 (T441, SEQ ID NO: 1) (Homo sapiens, UniProt P10636).
T3 construct: Full length tau (hT40)
T3 sequence (P10636 1-441 isoform P10636-8): as above
In words: Biacore X100 SPR kinetics of scAbs for hT40. It is filed as binding. Particulars: Table 23; scAb captured, T441 (hT40) analyte; 1:1 model. The method, boiled down:
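Captured scAb on anti-HuCk CM5 surface (flow cell 1 as reference) in HBS-EP+, capture set for theoretical RMax 100 RU; hT40 injected multi-cycle (0.15625–100 nM) or single-cycle (6.25–100 nM), 120 s association, 420 s dissociation, glycine pH 2.0 regeneration. Kinetics and affinity from 1:1 binding model fit.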

[4] abbreviates: residue numbers of SEQ ID NO: 1 (hT40), CDR Tables 1-11.
Where [5] appears, read: Table 27, mAb format, immobilised htau40.

T1 sequence (P10636 1-441 isoform P10636-8): as above
Sequence of dGAE aggregates (P10636 614-708): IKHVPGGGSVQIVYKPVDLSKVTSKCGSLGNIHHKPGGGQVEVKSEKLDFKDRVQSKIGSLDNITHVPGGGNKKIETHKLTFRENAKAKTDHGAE

B1: CA2: anti-tau clone, Table 10; SEQ ID NO: 363 (protein)
chain: QVQLQESGPSLVKPSQTLSLTCTVSGFSLSSVAVNWVRQAPGKVPEWLGGIISNGGTGYNPALKSRLSITRDTSKSQVSLALTHVTTEDTAVYYCGRGVEWEGSMDYLGPGLLVTVSSEGKSSGSGSETKVDDQSVLTQPSSVSGFLGQRVTITCSGSSSNVGAGSYVGWYQQVPGSGLRILIYGATKRASGLPDRFSGSRSGNTATLTISSLQAEDEADYYCVSYQTDFTLVFGSGTRLTVLG
modifications: CA2 amino acid sequence
As to B1, in the experiment with hT40 (S1D12 mAb capture, hT40, SuperSignal ELISA Femto Substrate), the “LoD (ng/ml) chemiluminescence detection” value worked out at 0.37 ng/mL. In the experiment with hT40 (S1D12 mAb capture, hT40, detection scAb 10 μg/ml, anti-HuCk HRP), the “LoD (ng/ml) colourimetric detection” value stood at 6 ng/mL. In experiment [1], the “Tau proteins/fragments with positive scAb reactivity” value is “hT40, 1-49, 1-319, 1-155, 186-350, 348-441” and the “Shortest region bound on hT40” value was 1-155. In addition, the “Detection scAb (Epitope)” value in experiment [1] (residues of hT40) is recorded as “CA2 (100-155)”. Moreover, the Epitope in experiment [1] (setting [4]) is listed as 1-155.

B2: CA4: anti-tau core clone, Table 10; SEQ ID NO: 368 (protein)
scFv: QVQLQESGPSLVKPSQTLSLTCTVSGFSLTSYSVYWVRQAPGQALEWISIMYASGRVDYNPALKSRLSITRDTSKSQFSLSLSSVTTEDTAVYYCTRGIENWGPGLLVTVSSEGKSSGASGESKVDDDIQVTQSPSSLSASLTERVSITCRTSQSVNNYLSWYQQKPGQAPKLLIYYATRLYTDVPSRFSGSGSGTDYTLTITSLEADDTATYYCLQYDSTPLAFGGGTNVEIK
modifications: CA4 amino acid sequence
Turning to B2, in the experiment with htau40 (setting [5]), the “ka” value stood at 1.02e+06 M⁻¹ s⁻¹ and the “kd” value worked out at 0.001276 s⁻¹. Moreover, the Kd in the experiment with htau40 (as quoted in Example 32, read-out: affinity) worked out at 3 nM. Besides, the “immunoreactivity to dGAE aggregation samples prepared in the presence of LMTM” value in the experiment with dGAE aggregates is on record as “increase in immunoreactivity”. Further, the critical binding residues in experiment [2] is given as 358 (D), 360 (I), 361 (T), 362 (H) and/or 364 (P). In experiment [1], the “Tau proteins/fragments with positive scAb reactivity” value is recorded as “hT40, 239-441, 297-390 (dGA)” and the “Shortest region bound on hT40” value is listed as 355-367. The Epitope in experiment [1] (Table 26 summary, top scAbs, residues of hT40) is on record as 355-367. Besides, the “Detection scAb (Epitope)” value in experiment [1] (residues of hT40) is “CA4 (355-367)”. The “Binding regions on hT40” value in experiment [1] (Table 33, core binding scAbs tested in epitope occlusion assays) is listed as 355-367. Also, in experiment [1] (setting [4]), the Epitope is reported as 355-367. Also, in experiment [3], the “ka” value is 458100 M⁻¹ s⁻¹ and the “kd” value came out at 0.001654 s⁻¹.

B3: S1G2 mAb: S1G2 reformatted; heavy chain SEQ ID NO: 457, light chain 458 (antibody)
heavy: QVQLQESGPSLVKPSQTLSLTCTVSGFSLTSNSVGWVRQAPGKAPEWVAGIDTDGEEGYNPALNSRLSITRDTSKSQVSLSLSSVTSEDTAVYYCGRSYRADGLAYGYVQAIDYWGPGLLVTVSSAKTTAPSVYPLAPVCGDTTGSSVTLGCLVKGYFPEPVTLTWNSGSLSSGVHTFPAVLQSDLYTLSSSVTVTSSTWPSQSITCNVAHPASSTKVDKKIEPRGPTIKPCPPCKCPAPNLLGGPSVFIFPPKIKDVLMISLSPIVTCVVVDVSEDDPDVQISWFVNNVEVHTAQTQTHREDYNSTLRVVSALPIQHQDWMSGKEFKCKVNNKDLPAPIERTISKPKGSVRAPQVYVLPPPEEEMTKKQVTLTCMVTDFMPEDIYVEWTNNGKTELNYKNTEPVLDSDGSYFMYSKLRVEKKNWVERNSYSCSVVHEGLHNHHTTKSFSRTPGK
light: QAVVTQPSSVSGSLGQRVSITCSGSFIGISSVGWFQQLPGSGLRTIIVASDGRPSGVPDRFSMSKSGNTATLTISSLQAEDEADYFCGSSDRTPYTGVFGSGTRLTVLGGQPKSSPSVTLFPPSSEELETNKATLVCTITDFYPGVVTVDWKVDGTPVTQGMETTQPSKQSNNKYMASSYLTLTARAWERHSSYSCQVTHEGHTVEKSLSRADCS
modifications: S1G2 mAB Heavy Chain; S1G2 mAB Light Chain
For B3, the “LOD for hT40” value with hT40 (S1G2 mAb capture, HRP labelled S1D12 mAb detection, chemiluminescence) is ~1 ng/mL.

The values above are taken from US20250355001A1, “METHOD FOR DETECTING A TAU PROTEIN FRAGMENT IN A SAMPLE” (GTINVENT LIMITED, priority 2022, published 2025).
